Among the data in US20230295327A1 are p-STAT4 (Tyr693) AlphaLISA in activated human T cells, EC50 values, retold here.

The target in the experiment is IL-12 receptor of human T cells (human) (UniProt P42701). Briefly: cell-based or functional assay.
Sequence of IL-12 receptor of human T cells (human) (Q99665 24-862, chain 2 of 2, other chains not shown): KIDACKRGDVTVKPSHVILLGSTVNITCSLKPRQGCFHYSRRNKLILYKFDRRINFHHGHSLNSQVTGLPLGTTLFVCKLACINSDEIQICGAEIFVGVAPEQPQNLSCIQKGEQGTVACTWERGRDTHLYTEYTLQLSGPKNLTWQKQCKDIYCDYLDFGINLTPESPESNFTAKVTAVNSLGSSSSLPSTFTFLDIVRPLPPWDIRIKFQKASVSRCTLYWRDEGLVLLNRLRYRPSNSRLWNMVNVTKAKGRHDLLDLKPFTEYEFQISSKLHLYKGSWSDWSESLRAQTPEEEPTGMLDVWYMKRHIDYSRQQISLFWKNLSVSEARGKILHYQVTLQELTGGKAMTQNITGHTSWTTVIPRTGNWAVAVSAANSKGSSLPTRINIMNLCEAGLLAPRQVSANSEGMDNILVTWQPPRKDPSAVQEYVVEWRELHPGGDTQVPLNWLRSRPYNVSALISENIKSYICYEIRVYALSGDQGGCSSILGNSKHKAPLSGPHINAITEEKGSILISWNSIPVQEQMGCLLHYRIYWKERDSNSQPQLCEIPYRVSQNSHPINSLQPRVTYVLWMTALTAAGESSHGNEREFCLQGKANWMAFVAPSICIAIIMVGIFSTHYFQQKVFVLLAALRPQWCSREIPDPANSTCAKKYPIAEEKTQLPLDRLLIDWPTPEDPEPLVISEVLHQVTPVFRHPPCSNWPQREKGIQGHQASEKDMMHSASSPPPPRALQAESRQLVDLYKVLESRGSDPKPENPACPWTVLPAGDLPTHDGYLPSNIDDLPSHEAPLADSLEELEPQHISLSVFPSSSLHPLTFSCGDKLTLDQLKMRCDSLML

With “recombinant human IL-12 (from UniProt P29459 23-219; P29460 23-328) (ligand)”, the p-STAT4 (Tyr693) AlphaLISA in activated human T cells, EC50 was determined as 0.195 ng/mL.
